# B1: JS5-10 (antibody, human IgG1, kappa, L234A L235A, V domains shown)
# VH: EVQLLESGGGLVQPGGSLRLSCAASGFTFSSYAMSWVRQAPGKGLEWVSAIVGSGGSTYYADSVKGRFIISRDNSKNTLYLQMNSLRAEDTAVYYCAKSLIYGHYDILTGAYYFDYWGQGTLVTVSS
# VL: DIQMTQSPSSVSASVGDRVTIPCRASQGIGNWLAWYQQKPGKAPKLLIYAASSLQSGVPSRFSGSGSGTDFTLTISSLQPEDFATYYCQQANSFPPFGQGTRLEIKR
# What was measured:
# [1] = molecular target: Alpha突变株RBD蛋白(货号SPD-C82E6，ACRO Biosystems) (SARS-CoV-2, UniProt P0DTC2 319-537)
# [2] = molecular target: Beta突变株RBD蛋白(货号SPD-C82E5，ACRO Biosystems) (SARS-CoV-2, UniProt P0DTC2 319-537)
# [3] = molecular target: Gamma突变株RBD蛋白(货号SPD-C82E7，ACRO Biosystems) (SARS-CoV-2, UniProt P0DTC2 319-537)
# [4] = molecular target: Kappa突变株RBD蛋白(货号SPD-C82Ec，ACRO Biosystems) (SARS-CoV-2, UniProt P0DTC2 319-537)
# [5] = molecular target: Epsilon突变株RBD蛋白(货号SPD-C82E3，ACRO Biosystems) (SARS-CoV-2, UniProt P0DTC2 319-537)
# [6] = molecular target: Delta突变株RBD蛋白(货号SPD-C82Ed，ACRO Biosystems) (SARS-CoV-2, UniProt P0DTC2 319-537)
# [7] = molecular target: SARS-CoV-2的Alpha突变株(B.1.1.7)假病毒的刺突蛋白 (SARS-CoV-2, UniProt P0DTC2 14-1273); assay: cell-based or functional assay
# [8] = molecular target: SARS-CoV-2的Beta突变株(B.1.351)假病毒的刺突蛋白 (SARS-CoV-2, UniProt P0DTC2 14-1273); assay: cell-based or functional assay
# [9] = molecular target: SARS-CoV-2的Gamma突变株(P.1)假病毒的刺突蛋白 (SARS-CoV-2, UniProt P0DTC2 14-1273); assay: cell-based or functional assay
# [10] = molecular target: SARS-CoV-2的Kappa突变株(B.1.617.1)假病毒的刺突蛋白 (SARS-CoV-2, UniProt P0DTC2 14-1273); assay: cell-based or functional assay
# [11] = molecular target: SARS-CoV-2的Delta突变株(B.1.617.2)假病毒的刺突蛋白 (SARS-CoV-2, UniProt P0DTC2 14-1273); assay: cell-based or functional assay
binder,measurement,setting,value
B1,Kd,[1],1.3 nM
same,koff,[1],0.000316 s⁻¹
same,kon,[1],243000 M⁻¹ s⁻¹
same,Kd,[2],0.88 nM
same,koff,[2],0.000176 s⁻¹
same,kon,[2],201000 M⁻¹ s⁻¹
same,Kd,[3],1.12 nM
same,koff,[3],0.000241 s⁻¹
same,kon,[3],216000 M⁻¹ s⁻¹
same,Kd,[4],0.875 nM
same,koff,[4],0.000172 s⁻¹
same,kon,[4],196000 M⁻¹ s⁻¹
same,Kd,[5],1.17 nM
same,koff,[5],0.000226 s⁻¹
same,kon,[5],193000 M⁻¹ s⁻¹
same,Kd,[6],0.73 nM
same,koff,[6],0.000161 s⁻¹
same,kon,[6],220000 M⁻¹ s⁻¹
same,"假病毒中和 IC50 (荧光素酶报告基因, 293-ACE2细胞)",[7],1.18 ng/mL
same,"假病毒中和 IC50 (荧光素酶报告基因, 293-ACE2细胞)",[8],8.47 ng/mL
same,"假病毒中和 IC50 (荧光素酶报告基因, 293-ACE2细胞)",[9],0.449 ng/mL
same,"假病毒中和 IC50 (荧光素酶报告基因, 293-ACE2细胞)",[10],5.4 ng/mL
same,"假病毒中和 IC50 (荧光素酶报告基因, 293-ACE2细胞)",[11],5.56 ng/mL

# From patent CN116178530A (SHANGHAI JUNSHI BIOSCIENCES CO LTD; JUNMENG BIOSCIENCES CO …, dated 2023)
